Holding throughout (assay): microscale thermophoresis
One assay has as its target EPHA2ΔC ECD (Homo sapiens, UniProt P29317).
A further assay has as its target EPHA2 (Homo sapiens, UniProt P29317).
Assay [1] deals with T1, EPHA2ΔN intracellular region (Homo sapiens, UniProt P29317).
T1 chain: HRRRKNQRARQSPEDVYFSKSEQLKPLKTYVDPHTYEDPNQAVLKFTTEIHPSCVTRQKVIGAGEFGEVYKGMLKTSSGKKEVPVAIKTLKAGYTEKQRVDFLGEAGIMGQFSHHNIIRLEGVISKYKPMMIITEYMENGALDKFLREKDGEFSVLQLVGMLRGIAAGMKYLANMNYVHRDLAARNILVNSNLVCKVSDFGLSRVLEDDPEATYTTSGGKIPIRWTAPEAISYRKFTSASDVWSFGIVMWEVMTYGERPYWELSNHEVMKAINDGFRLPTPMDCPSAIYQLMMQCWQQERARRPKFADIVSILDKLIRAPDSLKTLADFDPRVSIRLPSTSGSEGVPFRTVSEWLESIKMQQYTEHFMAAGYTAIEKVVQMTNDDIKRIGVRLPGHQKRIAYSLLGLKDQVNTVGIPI

Our source for the Kd values is article PMC10765961 (2024).

EPHA2ΔC ECD, sequence (P29317 24-537, stated change not applied): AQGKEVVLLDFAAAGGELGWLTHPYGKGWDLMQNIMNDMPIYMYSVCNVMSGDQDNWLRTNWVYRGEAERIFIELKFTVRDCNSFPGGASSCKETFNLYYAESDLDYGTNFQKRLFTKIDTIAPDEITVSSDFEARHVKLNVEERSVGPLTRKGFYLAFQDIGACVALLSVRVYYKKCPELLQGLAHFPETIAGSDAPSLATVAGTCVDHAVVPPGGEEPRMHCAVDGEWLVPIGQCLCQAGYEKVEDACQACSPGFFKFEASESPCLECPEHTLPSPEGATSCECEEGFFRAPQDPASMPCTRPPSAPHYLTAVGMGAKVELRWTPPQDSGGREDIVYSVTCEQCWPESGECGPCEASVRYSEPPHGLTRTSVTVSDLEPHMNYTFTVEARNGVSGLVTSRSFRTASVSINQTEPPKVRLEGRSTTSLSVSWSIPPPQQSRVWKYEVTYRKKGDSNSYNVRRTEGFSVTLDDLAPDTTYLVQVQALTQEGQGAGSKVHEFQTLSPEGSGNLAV

B1: Claudin-1 (protein)
chain: MANAGLQLLGFILAFLGWIGAIVSTALPQWRIYSYAGDNIVTAQAMYEGLWMSCVSQSTGQIQCKVFDSLLNLSSTLQATRALMVVGILLGVIAIFVATVGMKCMKCLEDDEVQKMRMAVIGGAIFLLAGLAILVATAWYGNRIVQEFYDPMTPVNARYEFGQALFTGWAAASLCLLGGALLCCSCPRKTTSYPTPRPYPKPAPSSGKDYV
modifications: Cy3-labeled CLDN1
With B1, the Kd (commonly the concentration at which binding is half-saturated) was 582 nM with EPHA2ΔC ECD, 150 nM with EPHA2 and 125 nM in assay [1].
